# B1: His6-EGFP-KRIT1 (WT) FERM domain (417–736) (domain or fragment, human, UniProt O00522 417-736, looked up)
# chain: KPYEKVRIYRMDGSYRSVELKHGNNTTVQQIMEGMRLSQETQQYFTIWICSENLSLQLKPYHKPLQHVRDWPEILAELTNLDPQRETPQLFLRRDVRLPLEVEKQIEDPLAILILFDEARYNLLKGFYTAPDAKLITLASLLLQIVYGNYESKKHKQGFLNEENLKSIVPVTKLKSKAPHWTNRILHEYKNLSTSEGVSKEMHHLQRMFLQNCWEIPTYGAAFFTGQIFTKASPSNHKVIPVYVGVNIKGLHLLNMETKALLISLKYGCFMWQLGDTDTCFQIHSMENKMSFIVHTKQAGLVVKLLMKLNGQLMPTERNS
# B2: biotinylated HEG1 cytoplasmic tail (a.a. 1274–1381) (domain or fragment, UniProt Q9ULI3 1274-1381, looked up)
# chain: RKNKNDISKLIFKSGDFQMSPYAEYPKNPRSQEWGREAIEMHENGSTKNLLQMTDVYYSPTSVRNPELERNGLYPAYTGLPGSRHSCIFPGQYNPSFISDESRRRDYF
# modifications: biotin on the in vivo biotinylation peptide tag
# Assays:
# [1] = target: B2; test: flow cytometry on beads
# [2] = target: B1; test: flow cytometry on beads
EC50 [1] [nM],binding result [2],Binder
32.4,,B1
,binds,B2
